Laboratory results published in US20230136252A1 (NANJING LEGEND BIOTECH, published 2023).

T1: recombinant human GPC4-Fc (human, UniProt O75487 19-529, limits assumed)
T1 construct: Bought protein; also called RD System Cat #9195-GP; not shown: Fc
T1 sequence (looked up): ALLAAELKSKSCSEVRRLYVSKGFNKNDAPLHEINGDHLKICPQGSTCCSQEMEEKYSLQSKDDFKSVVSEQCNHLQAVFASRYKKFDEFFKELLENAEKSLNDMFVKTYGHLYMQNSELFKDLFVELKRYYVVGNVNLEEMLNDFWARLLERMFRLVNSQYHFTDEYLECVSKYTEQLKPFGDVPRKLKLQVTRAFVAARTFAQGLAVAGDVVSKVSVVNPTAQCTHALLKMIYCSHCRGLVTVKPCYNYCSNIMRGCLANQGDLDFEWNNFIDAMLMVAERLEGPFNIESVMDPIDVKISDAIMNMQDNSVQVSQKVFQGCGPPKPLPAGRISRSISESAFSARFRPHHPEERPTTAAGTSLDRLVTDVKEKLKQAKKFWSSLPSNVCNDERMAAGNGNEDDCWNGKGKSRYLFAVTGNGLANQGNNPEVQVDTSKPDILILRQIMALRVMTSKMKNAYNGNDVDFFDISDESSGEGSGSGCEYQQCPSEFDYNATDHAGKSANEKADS

T2: human GPC2 on cells (SH-SY5Y, IMR-32, HEK293T/hGPC2) (human, UniProt Q8N158 24-554)
T2 construct: whole, on cells; GPI-anchored proteoglycan on the cell surface; also called cell-surface human GPC2; GPC2 positive cells
T2 sequence (looked up): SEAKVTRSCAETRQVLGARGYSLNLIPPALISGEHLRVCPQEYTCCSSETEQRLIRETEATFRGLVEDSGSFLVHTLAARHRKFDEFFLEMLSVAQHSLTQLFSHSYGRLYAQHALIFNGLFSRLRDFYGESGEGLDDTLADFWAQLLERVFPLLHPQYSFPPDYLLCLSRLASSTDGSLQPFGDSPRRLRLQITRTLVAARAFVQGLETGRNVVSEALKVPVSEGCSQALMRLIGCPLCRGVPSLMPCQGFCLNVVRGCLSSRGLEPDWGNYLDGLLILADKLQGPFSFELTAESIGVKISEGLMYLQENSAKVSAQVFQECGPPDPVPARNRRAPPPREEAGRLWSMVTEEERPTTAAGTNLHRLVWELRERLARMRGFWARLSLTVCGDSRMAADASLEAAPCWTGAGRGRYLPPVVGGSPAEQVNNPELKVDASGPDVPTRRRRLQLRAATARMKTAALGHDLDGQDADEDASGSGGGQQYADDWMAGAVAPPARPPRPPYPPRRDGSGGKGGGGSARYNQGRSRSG

T3: cynomolgus monkey GPC2 on cells (HEK293T/cynoGPC2) (Cynomolgus monkey (Macaca fascicularis), UniProt A0A2K5X5G1 24-551)
T3 construct: whole, on cells; also called Cynomolgus monkey (Macaca fascicularis) GPC2
T3 sequence: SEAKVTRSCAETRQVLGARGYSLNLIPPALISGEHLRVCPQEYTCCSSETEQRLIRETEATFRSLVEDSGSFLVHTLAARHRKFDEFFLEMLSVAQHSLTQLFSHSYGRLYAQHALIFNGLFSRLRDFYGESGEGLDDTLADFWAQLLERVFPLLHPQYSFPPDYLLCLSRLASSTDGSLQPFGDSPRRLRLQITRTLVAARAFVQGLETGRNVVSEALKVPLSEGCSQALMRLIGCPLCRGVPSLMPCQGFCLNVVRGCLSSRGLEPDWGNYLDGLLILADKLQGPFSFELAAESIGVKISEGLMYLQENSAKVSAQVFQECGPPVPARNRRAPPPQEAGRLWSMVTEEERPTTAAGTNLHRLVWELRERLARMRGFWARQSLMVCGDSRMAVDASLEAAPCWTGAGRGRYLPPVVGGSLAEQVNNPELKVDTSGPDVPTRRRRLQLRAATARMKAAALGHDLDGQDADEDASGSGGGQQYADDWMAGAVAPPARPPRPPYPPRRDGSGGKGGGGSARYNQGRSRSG

T4: recombinant human GPC2-His protein (human, UniProt Q8N158 24-554, limits assumed)
T4 construct: Bought protein; The SPR paragraph gives no catalogue number for GPC2-His; also called recombinant Human Glypican 2 Protein; recombinant human GPC2 protein; not shown: His tag
T4 sequence (looked up): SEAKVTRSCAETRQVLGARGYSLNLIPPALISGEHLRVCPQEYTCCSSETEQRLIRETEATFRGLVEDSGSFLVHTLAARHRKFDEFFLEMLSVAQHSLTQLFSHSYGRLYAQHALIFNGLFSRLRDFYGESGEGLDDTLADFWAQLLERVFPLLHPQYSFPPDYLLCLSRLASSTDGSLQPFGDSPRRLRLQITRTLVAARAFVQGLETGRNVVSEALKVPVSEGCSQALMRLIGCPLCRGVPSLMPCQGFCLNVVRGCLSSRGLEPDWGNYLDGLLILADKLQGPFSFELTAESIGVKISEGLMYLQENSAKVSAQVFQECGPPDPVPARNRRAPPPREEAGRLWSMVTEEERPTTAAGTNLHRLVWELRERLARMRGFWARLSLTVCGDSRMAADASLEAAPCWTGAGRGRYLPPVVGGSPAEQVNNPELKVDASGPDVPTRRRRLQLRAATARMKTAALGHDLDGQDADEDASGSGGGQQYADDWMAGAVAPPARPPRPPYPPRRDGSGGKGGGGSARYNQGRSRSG


Assays:
[1] = biological target: T1, recombinant human GPC4-Fc; assay: ELISA on GPC4 coated plate; by paragraph 266 the VHH-His form with anti-His tag secondary was used on GPC4-Fc; the sheet's title prints the hIgG1Fc form and its legend 'rhGPC4-his'
Protocol: To evaluate the specificity of humanized anti-GPC2 VHH5 to recombinant human GPC2 protein, an ELISA-based binding assay was conducted to determine the differential target proteins binding of anti-GPC2 VHH5. Briefly, microplates were coated with 2 μg/mL recombinant human GPC1-His (RD System, Cat #4519-GP), GPC2-His (RD System, Cat #2304-GP), GPC3-His (ACRO, Cat #GP3-H5223), GPC4-Fc (RD System, Cat #9195-GP), GPC5-His (RD System, Cat #2607-G5/CF), GPC6-His (RD System, Cat #2845-GP) or recombinant mouse GPC2-His (RD System, Cat #2355-GP) proteins. Recombinant human protein coated plates were blocked with skim milk. Serially diluted humanized VHH-hIgG1Fc recombinant antibodies were added to each well of the plates and incubated at 4° C. for 1.5 h. Samples were further labelled with HRP-conjugated goat anti human IgG (H+L) secondary antibody (Genescript, Cat #A00166-1) and signal was developed with 3,3′,5,5′-Tetramethylbenzidine (TMB) substrate according to manufacturer's instruction. For the GPC4, VHH-His recombinant antibodies and anti-His tag secondary antibody (Genescript, Cat #A00612) were added to the GPC4-Fc coated plates instead. Optic density at 450 nm was measured by plate reader.

[2] = biological target: T2, human GPC2 on cells (SH-SY5Y, IMR-32, …); assay: flow cytometry on SH-SY5Y cells, VHH-His detected with anti-His tag antibody (iFluor 647), median fluorescence intensity, four-parameter fit
Protocol: (§1) Binding affinities of humanized VHH proteins AS70950VH6, AS71529VH6, AS72669VH6 and AS71529VH6-AS70950VH6 anti-GPC2 VHH-HIS proteins to human GPC2 expressing cells (SH-SY5Y and HEK293T/hGPC2) and cynomolgus monkey GPC2 expressing cell (HEK293T/cynoGPC2) were determined using flow cytometry. Briefly, serially diluted anti-GPC2 VHH-HIS proteins were incubated with 2×10⁵ target cells at 4° C. for 30 mins. After washing, cells were further labelled with THE™ His tag Antibody (iFluor 647) (Genescript, #A01802) at 4° C. for 30 mins. Fluorescence intensity was measured by flow cytometry. A four parameters variable slope curve was fitted to each group using GraphPad Prism for Windows Version 6.02. As shown in FIG. 4A-FIG. 4C, exemplary AS70950VH6, AS71529VH6, AS72669VH6 and AS71529VH6-AS70950VH6 specifically bind to SH-SY5Y, HEK293T/hGPC2 and HEK293T/cynoGPC2 in a dose-dependent manner.

[3] = biological target: T2, human GPC2 on cells (SH-SY5Y, IMR-32, …); assay: flow cytometry on HEK293T/hGPC2 cells, VHH-His detected with anti-His tag antibody (iFluor 647), median fluorescence intensity, four-parameter fit
Protocol: as §1

[4] = biological target: T3, cynomolgus monkey GPC2 on cells …; assay: flow cytometry on HEK293T/cynoGPC2 cells, VHH-His detected with anti-His tag antibody (iFluor 647), median fluorescence intensity, four-parameter fit
Protocol: as §1

[5] = biological target: T4, recombinant human GPC2-His protein; assay: SPR, Biacore T200, GPC2-His amine-coupled to CM5 chip, VHH-hIgG1Fc as analyte, 1:1 model
Protocol: Each of the exemplary anti-GPC2 VHH sequences was cloned into a vector comprising a human IgG1Fc fragment (hlgG1Fc) sequence to facilitate recombinant expression of anti-GPC2 VHH-hlgG1Fc. Recombinant proteins were obtained and purified for SPR assays. The affinity of each anti-GPC2 VHH-hIgG1Fc for GPC2 was determined by SPR using a BIACORE® T200 analytical system (GE Healthcare). Briefly, recombinant human GPC2-His protein was covalently coupled to a CM5(s) sensor chip using an amine coupling kit. Exemplary VHH-hIgG1Fc proteins were serially diluted in running buffer (10 mM HEPES, 150 mM NaCl, 3 mM EDTA, 0.05% Tween-20, pH 7.4) and injected over the chip cell at a flowrate of 100 μL/min for 100 seconds followed by buffer-only injection for 300 seconds to allow for antibody dissociation. The dissociation […] (KD) were determined using the BIACORE® T200 evaluation software version 3.0 (Langmuir binding, local fit, 1:1 binding model).

Binder | binding result [1] | EC50 (read off the curve) [2] [nM] | EC50 (read off the curve) [3] [nM] | EC50 (read off the curve) [4] [nM] | Kd [5] [nM] | koff [5] [s⁻¹] | kon [5] [M⁻¹ s⁻¹]
AS79236VH6 VHH-His recombinant antibody (VHH, the result sentence still names the hIgG1Fc form) VHH: EVQLVESGGGLVQPGGSLRLSCAVSGYTYSSYCMAWFRQAPGKGLEGVASIDAGGRTTYVDSVKGRFTISKDNAKNSLYLQMNSLRAEDTAMYYCAVDVRTRCGGTWDGEAVYFPYWGQGTLVTVSS | no binding (tested: about 300 nM) | – | – | – | – | – | –
AS72669VH6 anti-GPC2 VHH-His protein (VHH) VHH: QVQLVESGGGVVQPGGSLRLSCAASRFTYSSYCMGWIRQAPGKGREGVAIFYTGGGRTYYADSVKGRFTISQDNSKNTLYLQMNSLRAEDTAVYYCVAGFYCSGGYWEGDFGYWGQGTLVTVSS | – | ~2 | ~4 | ~5 | – | – | –
AS72669VH6-hIgG1Fc (Fc fusion, also called anti-GPC2 VHH-hIgG1Fc; not shown: human IgG1 Fc fragment (hIgG1Fc)) QVQLVESGGGVVQPGGSLRLSCAASRFTYSSYCMGWIRQAPGKGREGVAIFYTGGGRTYYADSVKGRFTISQDNSKNTLYLQMNSLRAEDTAVYYCVAGFYCSGGYWEGDFGYWGQGTLVTVSS | – | – | – | – | 0.15 | 7.7e-05 | 520000
AS71529VH6 anti-GPC2 VHH-His protein (VHH) VHH: EVQLVESGGGLVQPGGSLRLSCAVSEYRYSSRYCMGWFRQAPGKGREGVAAIDSNGSADYVDSVKGRFTISKDNSKNTLYLQMNSLRAEDTAMYYCAADHLAYDCYSGATSVFRYWGQGTLVTVSS | – | ~100 | – | – | – | – | –
AS71529VH6-hIgG1Fc (Fc fusion, also called anti-GPC2 VHH-hIgG1Fc; not shown: human IgG1 Fc fragment (hIgG1Fc)) EVQLVESGGGLVQPGGSLRLSCAVSEYRYSSRYCMGWFRQAPGKGREGVAAIDSNGSADYVDSVKGRFTISKDNSKNTLYLQMNSLRAEDTAMYYCAADHLAYDCYSGATSVFRYWGQGTLVTVSS | – | – | – | – | 5.1 | 0.0044 | 850000
AS70950VH6 anti-GPC2 VHH-His protein (VHH) VHH: EVQLVESGGGLVQPGGSLRLSCAISEFTYKNTCVGWFRQAPGKGREGVAAIDSDGNTNYVDSVKGRFTISQDNSKNTVYLQMNSLRAEDTAMYYCAAGAYCGRLLLWIGNYAYWGQGTLVTVSS | no binding (tested: about 300 nM) | ~3 | ~2 | ~5 | – | – | –
AS71529VH6-AS70950VH6-hIgG1Fc (Fc fusion, Two different anti-GPC2 VHH domains in tandem, fused to a human IgG1Fc fragment; also called tandem anti-GPC2 VHH-hIgG1Fc; not shown: human IgG1 Fc fragment (hIgG1Fc)) EVQLVESGGGLVQPGGSLRLSCAVSEYRYSSRYCMGWFRQAPGKGREGVAAIDSNGSADYVDSVKGRFTISKDNSKNTLYLQMNSLRAEDTAMYYCAADHLAYDCYSGATSVFRYWGQGTLVTVSSGGGGSGGGGSGGGGSEVQLVESGGGLVQPGGSLRLSCAISEFTYKNTCVGWFRQAPGKGREGVAAIDSDGNTNYVDSVKGRFTISQDNSKNTVYLQMNSLRAEDTAMYYCAAGAYCGRLLLWIGNYAYWGQGTLVTVSS | – | – | – | – | 0.19 | 6.1e-05 | 320000
AS78117VH4 VHH-His recombinant antibody (VHH, the result sentence still names the hIgG1Fc form) VHH: EVQLVESGGGLVQPGGSLRLSCIVSRYTYATYSMAWFRQAPGKGLEGVSGLDSVGATGYAESVKGRFTISRDNSKNTLYLQMNSLRAEDTAVYYCVVDPASAKVTYGSWSTPSYAYWGQGTLVTVSS | no binding (tested: about 300 nM) | – | – | – | – | – | –
AS71529VH6-AS70950VH6 anti-GPC2 VHH-His protein (VHH, Tandem of two different anti-GPC2 VHH domains) EVQLVESGGGLVQPGGSLRLSCAVSEYRYSSRYCMGWFRQAPGKGREGVAAIDSNGSADYVDSVKGRFTISKDNSKNTLYLQMNSLRAEDTAMYYCAADHLAYDCYSGATSVFRYWGQGTLVTVSSGGGGSGGGGSGGGGSEVQLVESGGGLVQPGGSLRLSCAISEFTYKNTCVGWFRQAPGKGREGVAAIDSDGNTNYVDSVKGRFTISQDNSKNTVYLQMNSLRAEDTAMYYCAAGAYCGRLLLWIGNYAYWGQGTLVTVSSHHHHHH | – | ~3 | ~5 | ~5 | – | – | –
